Laboratory results reported in PMC4091690, “A Broadly Conserved G-Protein-Coupled Receptor Kinase Phosphorylation Mechanism Controls Drosophila Smoothened Activity” (PLoS Genetics, 2014).

B1: Smo^core (Drosophila Smoothened amino acids 1-663), C-terminally tagged with GFP10 S634 [Drosophila] / Costal-2 (Cos2), C-terminally tagged with Renilla luciferase II … (parent)
chain 1: MEIPIQVAVRIFPHRELKDLLRSFGPTEPKKDAQAVDEGADSKDSEAQVPAAEKDNPSISETDPNGNAEQDSAADSKTIPDANGNDSGQKDYPDSAYCVQAIPISASALGLPSALPGGDPMDSIAAGLIQVGPHTVPVTHALPSSSSQEQVYHQTVFPLITLFLEGFDASVVTYGQRGQGKSYTLYGNVQDPTLTDSTEGVVQLCVRDIFSHISLHPERTYAINVGFVEICGGDVCDLLGMGNIHCTNVDAVFHWLQVGLSARQSLPAHTLFTLTLEQQWVSKEGLLQHRLSTASFSDLCGTERCGDQPPGRPLDAGLCMLEQVISTLTDPGLMYGVNGNIPYGQTTLTTLLKDSFGGRAQTLVILCVSPLEEHLPETLGNLQFAFKVQCVRNFVIMNTYSDDNTMIVQPAEPVPESNSSAGPLSQAGPGDNFGLQFAASQWSKLVTNAEGLFSKLIDSKLITEVEKEQIEEWLFLKQECEECLSSTEAMRQQKQLVPILEAEEPEDVNSEAANSESPNSDNENDTDNESHRPDLDDKIESLMEEFRDKTDALILEKHAEYLSKHPKAVMQSQDREIEAQPPEENGDDRKVSIGSRRRSVQPGASLSTAELAMLNRVASQQPPPPIDPESVVDPLESSSGEGIRQAALAAAAATAPIEQLQKKLRKLVAEIEGKQRQLREIEETIQVKQNIIAELVKNSDTRSHAKQRFHKKRAKLEAECDKAKKQLGKALVQGRDQSEIERWTTIIGHLERRLEDLSSMKHIAGESGQKVKKLQQSVGESRKQADDLQKKLRKECKLRCQMEAELAKLRESRETGKELVKAQGSPEQQGRQLKAVQARITHLNHILREKSDNLEEQPGPEQQETLRHEIRNLRGTRDLLLEERCHLDRKLKRDKVLTQKEERKLLECDEAIEAIDAAIEFKNEMITGHRSIDTSDRIQREKGEQMLMARLNRLSTEEMRTLLYKYFTKVIDLRDSSRKLELQLVQLERERDAWEWKERVLSNAVRQARLEGERNAVLLQRQHEMKLTLMLRHMAEETSASSASYGERALAPACVAPPVQASSDFDYDHFYKGGGNPSKALIKAPKPMPTGSALDKYKDKEQRSGRNIFAKFHVLTRYASAAAAGSSGSTAEESTALIESTTTATATTTSTTTTGAVGKVKDKALVSFRPEQLKRLMPAPTATKVTRQKNKIIIQDASRRN
chain 2: SSAKFGSTTPASAQQSDVELEPINGTLNYRLYAKKGRDDKPWFDGLDSRHIQCVRRARCYPTSNATNTCFGSKLPYELSSLDLTDFHTEKELNDKLNDYYALKHVPKCWAAIQPFLCAVFKPKCEKINGEDMVYLPSYEMCRITMEPCRILYNTTFFPKFLRCNETLFPTKCTNGARGMKFNGTGQCLSPLVPTDTSASYYPGIEGCGVRCKDPLYTDDEHRQIHKLIGWAGSICLLSNLFVVSTFFIDWKNANKYPAVIVFYINLCFLIACVGWLLQFTSGSREDIVCRKDGTLRHSEPTAGENLSCIVIFVLVYYFLTAGMVWFVFLTYAWHWRAMGHVQDRIDKKGSYFHLVAWSLPLVLTITTMAFSEVDGNSIVGICFVGYINHSMRAGLLLGPLCGVILIGGYFITRGMVMLFGLKHFANDIKSTSASNKIHLIIMRMGVCALLTLVFILVAIACHVTEFRHADEWAQSFRQFIICKISSVFEEKSSCRIENRPSVGVLQLHLLCLFSSGIVMSTWCWTPSSIETWKRYIRKKCGKEVVEEVKMPKHKVIAQTWAKRKDFEDKGRLSITLYNTHTDPVGLNFDVNDLNSSETNDISSTWAAYLPQCVKRRMALTGAATGNSSSHGP

Variants of: B1
Test: BRET
Conditions: with Costal-2 (Cos2), S2 cells treated with smo 3′UTR dsRNA to deplete endogenous Smo, parent: 100, read off a plot

| response | Variant |
| --- | --- |
| 30 | chain 2 S573A T575A T579A T581A S595A S596A T598A S602A S603A T604A T620A T624A S627A S628A S629A |
